Our source for the response (Absorbance and Kd values is paper PMC9361855.

Assay [1] addresses Factor I (UniProt P05156). Put plainly: ELISA. The settings on record: CipA variants coated at 5 ng/µl, FI 10 ng/µl, anti-FI antibody 1:1,000, read off a plot. A general note: In an ELISA, binding on a coated surface is turned into a signal by an enzyme label.
Assay [2] addresses CipA (hexahistidine-tagged, lacking the N-terminal signal sequence, amino acid residues 19-369) (Acinetobacter baumannii). Kind of assay: ELISA; CipA immobilised (5 µg/ml), increasing amounts of complement component (0 to 50 nM in the methods; 0 to 25 nM FI in the legend); dissociation constant approximated by non-linear regression, one-site specific binding model.

One may read the Kd as the concentration at which binding is half-saturated.

Turning to “CipA (hexahistidine-tagged, lacking the N-terminal signal sequence, amino acid residues 19-369) E362A”, in assay [1] (parent: est. 3.1), the response (Absorbance at 490 nm) worked out at 2.9. Still for that read-out and setting: the value for “CipA (hexahistidine-tagged, lacking the N-terminal signal sequence, amino acid residues 19-369) E360A” was 2.8. As to “CipA (hexahistidine-tagged, lacking the N-terminal signal sequence, amino acid residues 19-369) L363del”, the response (Absorbance at 490 nm) in assay [1] (parent: est. 2.8) was 2.

As to “CipA (hexahistidine-tagged, lacking the N-terminal signal sequence, amino acid residues 19-369) Q361A”, in assay [1] (parent: est. 3.1), the response (Absorbance at 490 nm) worked out at 3.1. “CipA (hexahistidine-tagged, lacking the N-terminal signal sequence, amino acid residues 19-369) V364del”: the response (Absorbance at 490 nm) in assay [1] (parent: est. 2.8) turned out to be 1.9. In the case of “CipA (hexahistidine-tagged, lacking the N-terminal signal sequence, amino acid residues 19-369) E360P”, in assay [1] (parent: est. 3.1), the response (Absorbance at 490 nm) worked out at 0.35. In the case of “CipA (hexahistidine-tagged, lacking the N-terminal signal sequence, amino acid residues 19-369) P367del”, in assay [1] (parent: est. 2.8), the response (Absorbance at 490 nm) is 2. The same measure, in the same setting: the same measure for “CipA (hexahistidine-tagged, lacking the N-terminal signal sequence, amino acid residues 19-369) K365A; K366A; K368A; K369A”: 2.7. In assay [2], “Factor I (from UniProt P05156 19-335; P05156 340-583) (enzyme)” displayed a Kd of 3 nM. “CipA (hexahistidine-tagged, lacking the N-terminal signal sequence, amino acid residues 19-369) P367A”: the response (Absorbance at 490 nm) in assay [1] (parent: est. 2.8) was determined as 2.1. Same read-out and setting: the value for “CipA (hexahistidine-tagged, lacking the N-terminal signal sequence, amino acid residues 19-369) L363del; V364del” was 2.7.
